B1: TPR t1 (parent)
chain: GACCAAUCUGCCCUCAGAGCUCGAGAACAUCUUCGGAUGCAGAGGAGGCAGGCUUCGGUGGCGCGAUAGCGCCAACGUCCUCAACCUCCAAUGCAUCCCACCACAUGAUGAUGCCUGAAGAGCCUUGGUUUUUUG

Variants of: B1
Assay: polymerase ribozyme fitness, log enrichment relative to wild type (log ratio); higher = more active; in vitro selection for triplet polymerase activity
Procedure, shortened: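 Both subunits of a heterodimeric triplet polymerase ribozyme were given their own mutant library, built by PCR and transcribed. Each library was annealed with a biotinylated primer, the partner subunit and triplets, incubated frozen at −7 °C, and its extended constructs gel-excised, captured on streptavidin beads and amplified by RT-PCR, all in one round done in triplicate. Fitness is the logarithm of genotype enrichment relative to wild-type enrichment, with replicates averaged by inverse-variance weighting. That logarithm is base 2, and Illumina-sequenced genotypes needed ≥10 input reads and ≥1 read per output.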
In the case of C56G C94A, the “polymerase ribozyme fitness (log ratio)” value is reported as -0.555.
For C56A G69A G117U, the “polymerase ribozyme fitness (log ratio)” value was -6.41.
With C56G C115U the “polymerase ribozyme fitness (log ratio)” value was -1.4.
With C56U C101A C114A the “polymerase ribozyme fitness (log ratio)” value was -2.61.
With C56G G113C U133G the “polymerase ribozyme fitness (log ratio)” value was -2.55.
For C56U G77A C124U, the “polymerase ribozyme fitness (log ratio)” value was 1.2.
With C56U C94A the “polymerase ribozyme fitness (log ratio)” value was -0.478.
In the case of C56G A66U C88U C115A, the “polymerase ribozyme fitness (log ratio)” value is reported as -1.49.
For C56G C72G, the “polymerase ribozyme fitness (log ratio)” value was -2.27.
With C56G C72U the “polymerase ribozyme fitness (log ratio)” value was -1.05.
In the case of C56A G110A, the “polymerase ribozyme fitness (log ratio)” value is reported as -0.447.
In the case of C56A G110C, the “polymerase ribozyme fitness (log ratio)” value is reported as -2.63.
With C56U C85A C88A the “polymerase ribozyme fitness (log ratio)” value was -2.83.
In the case of C56U G120U C124A, the “polymerase ribozyme fitness (log ratio)” value is reported as 1.41.
With C56U A74C A75U C124U the “polymerase ribozyme fitness (log ratio)” value was 0.971.
With C56U C72A C88U the “polymerase ribozyme fitness (log ratio)” value was -1.31.
With C56A G120C A121U U131A the “polymerase ribozyme fitness (log ratio)” value was -0.425.
For C56U C85A, the “polymerase ribozyme fitness (log ratio)” value was -1.96.
For C56U C79A C99U C102A G120A G127U, the “polymerase ribozyme fitness (log ratio)” value was -5.84.
In the case of C56A C88A, the “polymerase ribozyme fitness (log ratio)” value is reported as -0.627.
In the case of C56A C88U, the “polymerase ribozyme fitness (log ratio)” value is reported as -0.627.
For C56A U78G C86A G120U, the “polymerase ribozyme fitness (log ratio)” value was -0.426.
With C56U C72A C89A the “polymerase ribozyme fitness (log ratio)” value was -2.41.
With C56U G69U U112G A119U the “polymerase ribozyme fitness (log ratio)” value was -3.07.
With C56U A90G C97U the “polymerase ribozyme fitness (log ratio)” value was -0.119.
For C56A C80U C102A C124U, the “polymerase ribozyme fitness (log ratio)” value was -2.1.
With C56U G110U U116G G117U the “polymerase ribozyme fitness (log ratio)” value was -6.29.
In the case of C56U U109A, the “polymerase ribozyme fitness (log ratio)” value is reported as -5.25.
In the case of C56A G71U C82U, the “polymerase ribozyme fitness (log ratio)” value is reported as -1.78.
With C56G A84G C114U the “polymerase ribozyme fitness (log ratio)” value was -4.61.
For C56A C104U G117A, the “polymerase ribozyme fitness (log ratio)” value was -1.3.
With C56G G71A G110U G117A the “polymerase ribozyme fitness (log ratio)” value was -5.02.
With C56U C62U the “polymerase ribozyme fitness (log ratio)” value was -0.378.
With C56U U129G the “polymerase ribozyme fitness (log ratio)” value was -0.409.
In the case of C56U C123A, the “polymerase ribozyme fitness (log ratio)” value is reported as 0.593.
With C56U C123G the “polymerase ribozyme fitness (log ratio)” value was 1.1.
In the case of C56U C123U, the “polymerase ribozyme fitness (log ratio)” value is reported as 1.04.
In the case of C56G G63A G77U G120C, the “polymerase ribozyme fitness (log ratio)” value is reported as 0.612.
With G57A G61A the “polymerase ribozyme fitness (log ratio)” value was -0.154.
For C56U U126A, the “polymerase ribozyme fitness (log ratio)” value was -1.39.
For C56U U126G, the “polymerase ribozyme fitness (log ratio)” value was -1.91.
In the case of C56U A83C, the “polymerase ribozyme fitness (log ratio)” value is reported as 1.56.
In the case of C56A C86A G120C, the “polymerase ribozyme fitness (log ratio)” value is reported as 0.246.
In the case of C56G C85U, the “polymerase ribozyme fitness (log ratio)” value is reported as -0.934.
With C56G C85A the “polymerase ribozyme fitness (log ratio)” value was -2.26.
With C56A C114A G135A the “polymerase ribozyme fitness (log ratio)” value was -2.55.
With C56A G61A the “polymerase ribozyme fitness (log ratio)” value was -1.51.
With C56U G127U the “polymerase ribozyme fitness (log ratio)” value was -0.508.
For C56G G63C, the “polymerase ribozyme fitness (log ratio)” value was -2.95.
With C56U C94U G120C A121U G127U the “polymerase ribozyme fitness (log ratio)” value was 0.202.
With C56U C88A the “polymerase ribozyme fitness (log ratio)” value was -0.497.
In the case of G57A C124A, the “polymerase ribozyme fitness (log ratio)” value is reported as 0.954.
For C56G G77C G127C U129G, the “polymerase ribozyme fitness (log ratio)” value was -0.438.
In the case of C56U G69U, the “polymerase ribozyme fitness (log ratio)” value is reported as -1.78.
For C56A G69U C88G C115U, the “polymerase ribozyme fitness (log ratio)” value was -1.62.
With C56U A74G U81G G117U A118U the “polymerase ribozyme fitness (log ratio)” value was -4.51.
For C56G G71A C82A C115A, the “polymerase ribozyme fitness (log ratio)” value was -3.76.
In the case of G57A G58C G63A C89A, the “polymerase ribozyme fitness (log ratio)” value is reported as -6.16.
In the case of C56G U78A U81A G113C, the “polymerase ribozyme fitness (log ratio)” value is reported as -3.06.
For C56A G77C C124A, the “polymerase ribozyme fitness (log ratio)” value was 1.47.
With C56A G69U the “polymerase ribozyme fitness (log ratio)” value was -0.137.
For C56A G69C, the “polymerase ribozyme fitness (log ratio)” value was -3.89.
For C56U G71A C72G G77C C82G A111U, the “polymerase ribozyme fitness (log ratio)” value was -6.46.
For C56U C70G C115A G122A, the “polymerase ribozyme fitness (log ratio)” value was -4.59.
With C56U C114G U131A the “polymerase ribozyme fitness (log ratio)” value was -2.06.
With C56U G60A C101U the “polymerase ribozyme fitness (log ratio)” value was -5.48.
For C56G G58U U59C C124A, the “polymerase ribozyme fitness (log ratio)” value was 1.88.
With C56G G61A U78G C88U U112A the “polymerase ribozyme fitness (log ratio)” value was -0.105.
For C56U U87C C94U A95C G113A, the “polymerase ribozyme fitness (log ratio)” value was -2.65.
In the case of G57A A84U, the “polymerase ribozyme fitness (log ratio)” value is reported as -0.813.
For C56A G69U U78A A90C C97A A118U, the “polymerase ribozyme fitness (log ratio)” value was -4.65.
With C56U G57U the “polymerase ribozyme fitness (log ratio)” value was -0.86.
With C56G C64U C79A the “polymerase ribozyme fitness (log ratio)” value was -1.17.
In the case of C56G G57C U92G U96A U132A, the “polymerase ribozyme fitness (log ratio)” value is reported as -3.72.
For C56A C76A, the “polymerase ribozyme fitness (log ratio)” value was -0.802.
With C56A U112C the “polymerase ribozyme fitness (log ratio)” value was -0.107.
With C56U A84G A95C G127U the “polymerase ribozyme fitness (log ratio)” value was -2.62.
In the case of C56G C72A C79U G117U, the “polymerase ribozyme fitness (log ratio)” value is reported as -4.93.
For C56G C72A C79U, the “polymerase ribozyme fitness (log ratio)” value was -1.41.
For C56A U87A U92A G120A A121U U131A, the “polymerase ribozyme fitness (log ratio)” value was -4.2.
In the case of C56U G113U C123G, the “polymerase ribozyme fitness (log ratio)” value is reported as -2.01.
With C56U C102A U129G the “polymerase ribozyme fitness (log ratio)” value was -3.35.
With C56U U112A U134A the “polymerase ribozyme fitness (log ratio)” value was 2.39.

From the RNAGym collection of RNA variant scans (doi:10.1073/pnas.2313332121)
